This is an account of results in US20260250769, “METHODS FOR DETERMINING THE PRESENCE OR RISK OF DEVELOPING FACIOSCAPULOHUMERAL DYSTROPHY (FSHD)” (Fred Hutchinson Cancer Center, published 2026).

The target in data set [1] is T1, DUX4-fl (Homo sapiens, UniProt Q9UBX2 SEQ:1-424). Kind of data set: EMSA; cold self competitor inhibits binding. The conditions noted are these: tags: from pCS2-DUX4-fl, TNT SP6 wheat germ extract; label: 32P. The method, then:
(§1) EMSA was performed with ³²P-labeled 31-bp oligonucleotides from endogenous genomic sequences containing the putative DUX4 binding site as probes (sequences below; only forward shown). Radiolabeled probes were incubated with in vitro translated protein generated from pCS2-DUX4-fl or pCS2-DUX4-s² vectors using the TNT SP6 Coupled Wheat Germ Extract System (Promega) according to manufacturer's instructions. To obtain supershift of protein-DNA complexes, 0.1 μg of E14-3 anti-DUX4 rabbit monoclonal antibody was added to the mixtures. For competition experiments, excess unlabeled probes of either wild-type or mutant sequences were included in the binding reaction. The gels were prepared and run as previously described (Knoepfler et al., Nucleic Acids Res 27:3752-3761 (1999)).
A general note: Mobility shift assays separate free from complexed probe on a gel.

The target in data set [2] is T1, DUX4-fl. Nature of the data set: competition; cold mutant does not compete with THE1D probe. As to conditions: tags: from pCS2-DUX4-fl, TNT SP6 wheat germ extract. The procedure:
as §1

Data set [3] concerns the target T1, DUX4-fl. Kind of data set: EMSA; supershift with E14-3; cold self competitor reduces binding. The conditions noted are these: tags: from pCS2-DUX4-fl, TNT SP6 wheat germ extract; label: 32P. The procedure: as §1
In data set [4] the target is DUX4-s (Homo sapiens). Kind of data set: EMSA; supershift with E14-3. The conditions noted are these: tags: from pCS2-DUX4-s2, TNT SP6 wheat germ extract; label: 32P. The method, then: as §1
Sequence of DUX4-s (Homo sapiens) (Q6RFH8 other isoform, or with tags, fused parts or gaps): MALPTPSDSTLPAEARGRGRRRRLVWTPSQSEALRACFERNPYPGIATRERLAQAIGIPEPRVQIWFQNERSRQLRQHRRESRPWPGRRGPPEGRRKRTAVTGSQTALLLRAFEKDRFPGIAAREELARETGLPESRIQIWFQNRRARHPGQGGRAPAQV
The target in data set [5] is T1, DUX4-fl. Kind of data set: competition; cold mutant does not compete with TRIM48 probe. The conditions noted are these: tags: from pCS2-DUX4-fl, TNT SP6 wheat germ extract. The procedure: as §1
The target of data set [6] is T1, DUX4-fl. Kind of data set: competition; cold mutant does not compete with CSF1R probe; core printed as … in legend. As to conditions: tags: from pCS2-DUX4-fl, TNT SP6 wheat germ extract. The method, then:
as §1

Numbering of substitutions follows the chain as printed.

T1 sequence (Q9UBX2 whole entry): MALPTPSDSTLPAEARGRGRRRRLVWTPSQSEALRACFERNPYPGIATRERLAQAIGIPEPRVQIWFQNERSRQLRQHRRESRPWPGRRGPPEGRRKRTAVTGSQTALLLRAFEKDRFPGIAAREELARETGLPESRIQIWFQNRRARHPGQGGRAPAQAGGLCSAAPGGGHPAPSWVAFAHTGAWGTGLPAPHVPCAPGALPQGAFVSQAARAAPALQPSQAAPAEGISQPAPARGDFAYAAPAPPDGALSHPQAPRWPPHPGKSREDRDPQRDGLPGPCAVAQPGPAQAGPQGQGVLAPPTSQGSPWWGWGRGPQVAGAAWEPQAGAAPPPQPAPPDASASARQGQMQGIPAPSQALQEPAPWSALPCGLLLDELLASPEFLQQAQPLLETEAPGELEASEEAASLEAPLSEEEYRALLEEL

B1: THE1D (dsDNA)
DNA 1: CCTGTGGGAGGTAATCCAATCATGGAGGCAG
DNA 2: CTGCCTCCATGATTGGATTACCTCCCACAGG
For the molecule B1, the binding result in data set [1] is on record as “binds”.

B2: THE1Dmut (dsDNA)
DNA 1: B1 DNA 1 with A14C, A18T, C21G
DNA 2: B1 DNA 2 with G11C, T14A, T18G
With B2, the binding result in data set [2] is “no binding”.

B3: TRIM48 (dsDNA)
DNA 1: AGGAGTGATGATAATTTAATCAGCCGTGCAA
DNA 2: TTGCACGGCTGATTAAATTATCATCACTCCT
With B3, the binding result in data set [3] and in data set [4] was “binds” in each case.

B4: TRIM48mut (dsDNA)
DNA 1: B3 DNA 1 with A14C, A18T, C21G
DNA 2: B3 DNA 2 with G11C, T14A, T18G
For the molecule B4, in data set [5], the binding result is given as “no binding”.

B5: CSF1R (dsDNA)
DNA 1: CCAGGTGGAGATAATTGAATCATGGGGGCAG
DNA 2: CTGCCCCCATGATTCAATTATCTCCACCTGG
As to B5, the binding result in data set [1] and in data set [4] was “binds” throughout.

B6: CSF1Rmut (dsDNA)
DNA 1: B5 DNA 1 with A14C, A18T, C21G
DNA 2: B5 DNA 2 with G11C, T14A, T18G
As for B6, in data set [6], the binding result is “no binding”.
